Like-named read-outs stand apart in the source and are kept apart here. Numbered stars: 1 amine (or outer) side, 2 acyl side, 3 side chain; on linkers, the order of the positions; unused ones are H or OH. Bridge positions count the residues as written; N and C are the ends. Square brackets hold non-standard residues; d marks the D form. Side chains are listed from the residue outwards. Ends that are not written are not given here. CSA‑2 = Cys(S-CH2CH2COOH), S-(2-carboxyethyl)-L-cysteine, O=C([C@H](CSCCC(=O)[*:3])N[*:1])[*:2]; Glu = Glu spacer between Lys side chain and the C16 fatty acid (EC16FA); Abu(4-SO3H) = N[C@@H](CCS(=O)(=O)O)C(=O)O; PhLac = O=C(O)[C@@H](O)Cc1ccccc1
Tests used:
[1] = molecular target: Receptor (human) (UniProt P47871); assay: receptor binding competition
[2] = molecular target: T1, human glucagon receptor (human, UniProt P47871 26-477); assay: cell-based or functional assay
[3] = molecular target: T1, human glucagon receptor; assay: SPA competition vs 125I-glucagon, receptor membranes
[4] = molecular target: T1, human glucagon receptor; assay: cell-based or functional assay; remark: listed apart in the source
[5] = molecular target: T2, human GLP-1 receptor (human, UniProt P43220 24-463); assay: cell-based or functional assay
[6] = molecular target: T1, human glucagon receptor; assay: cell-based or functional assay; remark: listed apart in the source
[7] = molecular target: T1, human glucagon receptor; assay: cell-based or functional assay; remark: listed apart in the source
[8] = molecular target: T1, human glucagon receptor; assay: SPA competition vs 125I-glucagon, receptor membranes; remark: listed apart in the source
[9] = molecular target: T1, human glucagon receptor; assay: as above; remark: listed apart in the source
[10] = molecular target: T1, human glucagon receptor; assay: cell-based or functional assay; remark: listed apart in the source
[11] = molecular target: T2, human GLP-1 receptor; assay: cell-based or functional assay; remark: listed apart in the source

T1 sequence (P47871 26-477): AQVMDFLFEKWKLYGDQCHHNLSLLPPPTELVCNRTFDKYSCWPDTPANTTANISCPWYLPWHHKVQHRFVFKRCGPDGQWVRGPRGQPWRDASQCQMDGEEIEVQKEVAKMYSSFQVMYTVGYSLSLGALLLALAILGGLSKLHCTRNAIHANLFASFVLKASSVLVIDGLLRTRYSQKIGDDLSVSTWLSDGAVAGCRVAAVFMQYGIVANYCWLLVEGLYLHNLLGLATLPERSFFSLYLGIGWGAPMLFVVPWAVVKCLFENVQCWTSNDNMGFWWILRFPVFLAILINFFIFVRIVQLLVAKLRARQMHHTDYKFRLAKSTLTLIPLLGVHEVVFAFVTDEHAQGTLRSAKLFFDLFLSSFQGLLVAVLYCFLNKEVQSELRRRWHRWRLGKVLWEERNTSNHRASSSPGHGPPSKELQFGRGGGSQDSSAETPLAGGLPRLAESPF
Sequence of Receptor (human) (P47871 26-477): as above

How did the IC50 [1] turn out when [Ac-F6, E9]G(6-29)-NH2 was run?
The IC50 was 37.1 nM.

With [3,4-2(F)-F6, E9]G(6-29)-NH2 as the molecule, how does the IC50 [1] read?
The IC50 was 36.7 nM.

Which IC50 [1] does the source give for [2-Nal6, E9]G(6-29)-NH2 here?
The IC50 was 95.2 nM.

[BMA6, E9]G(6-29)-NH2 was tested. Which IC50 [1] did it give?
The IC50 was 80.6 nM.

Which IC50 [1] does the source give for [MCA6, E9]G(6-29)-NH2 here?
The IC50 was 114 nM.

B1: [PLA^6, D^9]Glucagon(aa6-29)-COOH (peptide)
peptide: [PhLac]TSDYSKYLDSRRAQDFVQWLMNT-OH
modifications: N-terminus assumed
SMILES: CSCC[C@H](NC(=O)[C@H](CC(C)C)NC(=O)[C@H](Cc1c[nH]c2ccccc12)NC(=O)[C@H](CCC(N)=O)NC(=O)[C@@H](NC(=O)[C@H](Cc1ccccc1)NC(=O)[C@H](CC(=O)O)NC(=O)[C@H](CCC(N)=O)NC(=O)[C@H](C)NC(=O)[C@H](CCCNC(=N)N)NC(=O)[C@H](CCCNC(=N)N)NC(=O)[C@H](CO)NC(=O)[C@H](CC(=O)O)NC(=O)[C@H](CC(C)C)NC(=O)[C@H](Cc1ccc(O)cc1)NC(=O)[C@H](CCCCN)NC(=O)[C@H](CO)NC(=O)[C@H](Cc1ccc(O)cc1)NC(=O)[C@H](CC(=O)O)NC(=O)[C@H](CO)NC(=O)[C@@H](NC(=O)[C@@H](O)Cc1ccccc1)[C@@H](C)O)C(C)C)C(=O)N[C@@H](CC(N)=O)C(=O)N[C@H](C(=O)O)[C@@H](C)O
For B1, which “IC50 (cAMP, inhibit 0.1 nM Glucagon)” value [2] is on record?
Its value is 13.2 nM.

What about the IC50 [3] of the same molecule?
The IC50 was 15.5 nM.

B2: [PLA^6, D^9]Glucagon(aa6-29)-NH2 (peptide)
peptide: [PhLac]TSDYSKYLDSRRAQDFVQWLMNT-NH2
modifications: N-terminus assumed
SMILES: CSCC[C@H](NC(=O)[C@H](CC(C)C)NC(=O)[C@H](Cc1c[nH]c2ccccc12)NC(=O)[C@H](CCC(N)=O)NC(=O)[C@@H](NC(=O)[C@H](Cc1ccccc1)NC(=O)[C@H](CC(=O)O)NC(=O)[C@H](CCC(N)=O)NC(=O)[C@H](C)NC(=O)[C@H](CCCNC(=N)N)NC(=O)[C@H](CCCNC(=N)N)NC(=O)[C@H](CO)NC(=O)[C@H](CC(=O)O)NC(=O)[C@H](CC(C)C)NC(=O)[C@H](Cc1ccc(O)cc1)NC(=O)[C@H](CCCCN)NC(=O)[C@H](CO)NC(=O)[C@H](Cc1ccc(O)cc1)NC(=O)[C@H](CC(=O)O)NC(=O)[C@H](CO)NC(=O)[C@@H](NC(=O)[C@@H](O)Cc1ccccc1)[C@@H](C)O)C(C)C)C(=O)N[C@@H](CC(N)=O)C(=O)N[C@H](C(N)=O)[C@@H](C)O
With B2 as the molecule, how does the “IC50 (cAMP, inhibit 0.1 nM Glucagon)” value [2] read?
Its value is 6.9 nM.

What about the IC50 [3] of the same molecule?
The IC50 was 13.8 nM.

For [PhLac]TSDK([Glu-C16 fatty acid])SKYLDERRAKDFVQWLMDT-NH2 (lactam 11-15) [[PLA6, K10(EC16FA), E16K20(lactam),D28]G(6-29)], which “Glucagon antagonism IC50 (inhibit 0.4 nM glucagon)” value [4] is on record?
The value was 31.1 nM.

What about the “GLP-1 agonism EC50” value [5] of the same molecule?
The value was 129 nM.

B3: [(CSA-2)^9]Glucagon(aa6-29)-NH2 (peptide)
peptide: FTS[CSA‑2]YSKYLDSRRAQDFVQWLMNT-NH2
modifications: N-terminus assumed
SMILES: CSCC[C@H](NC(=O)[C@H](CC(C)C)NC(=O)[C@H](Cc1c[nH]c2ccccc12)NC(=O)[C@H](CCC(N)=O)NC(=O)[C@@H](NC(=O)[C@H](Cc1ccccc1)NC(=O)[C@H](CC(=O)O)NC(=O)[C@H](CCC(N)=O)NC(=O)[C@H](C)NC(=O)[C@H](CCCNC(=N)N)NC(=O)[C@H](CCCNC(=N)N)NC(=O)[C@H](CO)NC(=O)[C@H](CC(=O)O)NC(=O)[C@H](CC(C)C)NC(=O)[C@H](Cc1ccc(O)cc1)NC(=O)[C@H](CCCCN)NC(=O)[C@H](CO)NC(=O)[C@H](Cc1ccc(O)cc1)NC(=O)[C@H](CSCCC(=O)O)NC(=O)[C@H](CO)NC(=O)[C@@H](NC(=O)[C@@H](N)Cc1ccccc1)[C@@H](C)O)C(C)C)C(=O)N[C@@H](CC(N)=O)C(=O)N[C@H](C(N)=O)[C@@H](C)O
notes: also called [C^9(SCH2CH2COOH)]Glucagon (aa6-29)-NH2; peptide no; 14
What does the source list for B3?
cAMP (I/A)50 inhibition index [6]: 580; cAMP pA2 [6]: 6.64; cAMP IC50 [7]: 116 nM; cAMP pA2 [7]: 6.64; IC50 [8]: 146 nM; IC50 [9]: 146 nM

Which results are given for [PhLac]TSDYSKYLDERRAK([Glu-C16 fatty acid])DFVQWLMDT-NH2 [[PLA6, E16, K20(EC16FA), D28]G(6-29)]?
Glucagon antagonism IC50 (inhibit 0.4 nM glucagon) [4]: 576 nM; GLP-1 agonism EC50 [5]: 1290 nM

How did the “Glucagon antagonism IC50 (inhibit 0.4 nM glucagon)” value [4] turn out when [PhLac]TSDYSKYLDERRAKDFVQWLMDK([Glu-C16 fatty acid])-NH2 (lactam 11-15) [[PLA6, E16K20(lactam), D28, K29(EC16FA)]G(6-29)] was run?
The value was 386 nM.

And the “GLP-1 agonism EC50” value [5]?
The value was 1410 nM.

[PhLac]TS[Abu(4-SO3H)]YSKYLDSRRAQDFVQWLMNT-NH2 [[PLA^6, hCys(SO3)^9]Glucagon(aa6-29)-NH2] was tested. Which “IC50 (cAMP, inhibit 0.2 nM Glucagon)” value [2] did it give?
Its value is 40.2 nM.

What about the IC50 [3] of the same molecule?
The IC50 was 14.2 nM.

How did the “Glucagon antagonism IC50 (inhibit 0.8 nM glucagon)” value [10] turn out when SQGTFTSEYSKYLDERRAKDFVQWLMDT-NH2 (lactam 15-19) [[S2Q3, E9, E16K20(Lactam), D28] G(2-29)] was run?
Its value is 23.4 nM.

And the “GLP-1 agonism EC50” value [11]?
The value was 284 nM.

For [PhLac]TSDK([Glu-C16 fatty acid])SKYLDERRAKDFVQWLMDT-NH2 [[PLA6, K10(EC16FA), E16, K20,D28]G(6-29)], which “Glucagon antagonism IC50 (inhibit 0.4 nM glucagon)” value [4] is on record?
Its value is 222 nM.

And the “GLP-1 agonism EC50” value [5]?
The value was 105 nM.

Which results are given for [PhLac]TSDYSKYLDERRAKDFVK([Glu-C16 fatty acid])WLMDT-NH2 (lactam 11-15) [[PLA6, E16K20(lactam), K24(EC16FA), D28]G(6-29)]?
Glucagon antagonism IC50 (inhibit 0.4 nM glucagon) [4]: 372 nM; GLP-1 agonism EC50 [5]: 293 nM

[PhLac](C16 fatty acid)TSDYSKYLDERRAKDFVQWLMDT-NH2 (lactam 11-15) [[C16FA-O-PLA6, E16K20(lactam),D28]G(6-29)] was tested. Which “Glucagon antagonism IC50 (inhibit 0.4 nM glucagon)” value [4] did it give?
Its value is 338 nM.

And the “GLP-1 agonism EC50” value [5]?
Its value is 45.7 nM.

B4: [PLA^6, E^9]Glucagon (aa6-29 + CEX)-NH2 (peptide)
peptide: [PhLac]TSEYSKYLDSRRAQDFVQWLMNTGPSSGAPPPS-NH2
modifications: N-terminus assumed
SMILES: CSCC[C@H](NC(=O)[C@H](CC(C)C)NC(=O)[C@H](Cc1c[nH]c2ccccc12)NC(=O)[C@H](CCC(N)=O)NC(=O)[C@@H](NC(=O)[C@H](Cc1ccccc1)NC(=O)[C@H](CC(=O)O)NC(=O)[C@H](CCC(N)=O)NC(=O)[C@H](C)NC(=O)[C@H](CCCNC(=N)N)NC(=O)[C@H](CCCNC(=N)N)NC(=O)[C@H](CO)NC(=O)[C@H](CC(=O)O)NC(=O)[C@H](CC(C)C)NC(=O)[C@H](Cc1ccc(O)cc1)NC(=O)[C@H](CCCCN)NC(=O)[C@H](CO)NC(=O)[C@H](Cc1ccc(O)cc1)NC(=O)[C@H](CCC(=O)O)NC(=O)[C@H](CO)NC(=O)[C@@H](NC(=O)[C@@H](O)Cc1ccccc1)[C@@H](C)O)C(C)C)C(=O)N[C@@H](CC(N)=O)C(=O)N[C@H](C(=O)NCC(=O)N1CCC[C@H]1C(=O)N[C@@H](CO)C(=O)N[C@@H](CO)C(=O)NCC(=O)N[C@@H](C)C(=O)N1CCC[C@H]1C(=O)N1CCC[C@H]1C(=O)N1CCC[C@H]1C(=O)N[C@@H](CO)C(N)=O)[C@@H](C)O
How did the “IC50 (cAMP, inhibit 0.1 nM Glucagon)” value [2] turn out when B4 was run?
Its value is 24.8 nM.

And the IC50 [3]?
The IC50 was 40.3 nM.

With [PhLac]TSEYSKYLDSRRAQDFVQWLMNT-NH2 (lactam 4-7) [[PLA6, E9K12(Lactam)] G(6-29)] as the molecule, how does the “Glucagon antagonism IC50 (inhibit 0.8 nM glucagon)” value [10] read?
Its value is 72.5 nM.

And the “GLP-1 agonism EC50” value [11]?
Its value is 144 nM.

From patent US20110098217A1 (INDIANA UNIVERSITY RESEARCH AND TECHNOLOGY, published 2011)
